Reference: patent US6998239

Target: T1, human CCX CKR with N-terminal Flag epitope, stably expressed on HEK293 cells, Q9NPB9
T1 chain: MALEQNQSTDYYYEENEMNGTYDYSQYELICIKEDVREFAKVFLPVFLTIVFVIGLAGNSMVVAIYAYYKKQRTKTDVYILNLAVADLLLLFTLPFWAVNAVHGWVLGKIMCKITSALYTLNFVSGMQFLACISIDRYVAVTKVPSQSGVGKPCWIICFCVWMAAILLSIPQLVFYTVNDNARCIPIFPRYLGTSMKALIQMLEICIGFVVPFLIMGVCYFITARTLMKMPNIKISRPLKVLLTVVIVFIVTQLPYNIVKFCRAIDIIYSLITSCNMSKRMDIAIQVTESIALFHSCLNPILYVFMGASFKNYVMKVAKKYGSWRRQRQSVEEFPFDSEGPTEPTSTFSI
Assay: 125I-ELC competition binding
Details: ligand; chains chain; remark: other sources report otherwise

B1: BLC (B-lymphocyte chemoattractant), O43927 23-109 (protein)
chain: VLEVYYTSLRCRCVQESSVFIPRRFIDRIQILPRGNGCPRKEIIVWKKNKSIVCVDPQAEWIQRMMEVLRKRSSSTLPVPVFKRKIP
IC50: 140 nM
